Results from US20050144671A1 (ARIZONA BD OF REGENTS BEHALF OF UNIV OF ARIZONA, published 2005).

Molecular target: T1, S-tag-ABI2 (full-length ABI2 cloned in pCITE4a, in vitro translated) (UniProt O04719 1-423)
T1 construct: also called S-tagged ABI2; not shown: S-tag encoded by pCITE4a
T1 sequence (looked up): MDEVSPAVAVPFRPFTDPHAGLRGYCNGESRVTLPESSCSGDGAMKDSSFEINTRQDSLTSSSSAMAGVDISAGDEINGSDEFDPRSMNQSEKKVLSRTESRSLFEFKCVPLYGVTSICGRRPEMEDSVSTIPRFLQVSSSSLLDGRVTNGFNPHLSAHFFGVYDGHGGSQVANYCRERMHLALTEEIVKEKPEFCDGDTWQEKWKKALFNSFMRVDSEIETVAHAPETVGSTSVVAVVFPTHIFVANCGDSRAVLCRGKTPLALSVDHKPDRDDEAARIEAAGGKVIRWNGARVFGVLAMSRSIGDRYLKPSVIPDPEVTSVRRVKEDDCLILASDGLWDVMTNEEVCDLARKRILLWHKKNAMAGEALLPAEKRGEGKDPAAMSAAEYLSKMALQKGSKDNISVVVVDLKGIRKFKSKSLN
Assay: in vitro S-tag pull-down of 35S-labeled Snow1
Method: In-vitro pull down assay: In-vitro pull-down assays were conducted to confirm the physical interaction of Snow1 and Ice1. Full-length snow1 cloned in pGEM-T easy and AtMyb79 (cloned in EcoR I and Xho I sites of pBCSK Stratagene) were used. Full-length Ice1 and ABI2 were cloned in EcoRI/SalI and NcoI/EcoRI sites of pCITE4a. 2 μg each of the linearized plasmid were in vitro transcribed using Megascript T7 RNA polymerase kit (Ambion). 10 μg of the purified transcript of snow1 and AtMyb79 were in vitro translated using Flexi Rabbit Reticulocyte system (Promega) in presence of ³⁵S-methionine. S-tag-Ice1 and S-tag-ABI2 transcripts were translated in absence of ³⁵S-methionine and their proteins were purified using S-tag purification kit (Novagen) as per the manufacturer's instructions. S-Tag Ice1 and S-tag ABI2 bound on the S-Tag slurry were used to pull down ³⁵S-labeled proteins. In another experiment ³⁵S-labeled S-tag Ice was produced and was used for pull-down using either GST-Snow1 or GST-Myb79 proteins. Pull-down assays were conducted as described (Haftler et al 2000).

- binding result: no binding
B1: 35S-labeled Snow1 (full-length snow1 in pGEM-T easy, in vitro transcribed and translated) (other)
chain: MGRAPCCEKMGLKRGPWTPEEDQILVSFILNHGHSNWRALPKQAGLLRCGKSCRLRWMNYLKPDIKRGNFTKEEEDAIISLHQILGNRWSAIAAKLPGRTDNEIKNVWHTHLKKRLEDYQPAKPKTSNKKKGTKPKSESVITSSNSTRSESELADSSNPSGESLFSTSPSTSEVSSMTLISHDGYSNEINMDNKPGDISTIDQECVSFETFGADIDESFWKETLYSQDEHNYVSNDLEVAGLVEIQQEFQNLGSANNEMIFDSEMELLVRCIGICE
modifications: 35S-methionine label
